Assay results reported in publication PMC5481319.

Biological target: T1, (FNRD154A)2-His6 D154A (Escherichia coli) (UniProt P0A9E5)
T1 sequence: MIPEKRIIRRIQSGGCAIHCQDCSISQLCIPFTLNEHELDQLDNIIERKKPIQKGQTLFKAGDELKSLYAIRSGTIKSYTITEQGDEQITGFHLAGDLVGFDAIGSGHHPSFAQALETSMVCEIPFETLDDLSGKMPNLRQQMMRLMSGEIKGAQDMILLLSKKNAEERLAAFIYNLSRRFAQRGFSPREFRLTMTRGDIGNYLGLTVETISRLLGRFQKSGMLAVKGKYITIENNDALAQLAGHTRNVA
Experiment: EMSA
Conditions: 20 mM Tris, 50 mM NaCl, 40 mM EDTA ([…], pH 6.8, 30 min at 37 C

With “TCAGGCAGATAAACCCGTTCTTTGGCCTTGCCACTTAAAGTGCCAAAATCAATCTCCGTACTGATTTTCTCCGGTGTAAAAGAAAGCCCAGTATCAGAAGCCAGTGCAGCAAACGCTACAGGAGCTGAGAGTGCAGTAGCAAGAATCTTTAAGTACATAGACAAGTTAACTCCATTCCACTCGTTTGTTTTTGATAAATATTTTTTTATTTACTCGTAGTAGTCAACTGAAAAATGCTGTTTTGTTTAACGTTTGTTT (double strand) [ompT plasmid promoter PCR product]” the binding was “binds”.
